# Measurements from patent US11618906B2, “Hydroxylation techniques” (HYPHA DISCOVERY LTD., priority 2018, dated 2023).
# Assays:
# Type in all cases: biochemical
# [1] = Hydroxylation of flufenamic acid catalysed by cytochrome P450 aluC09 and mutants
# Procedure, shortened: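 Conversion measured by UPLC-MS (UV and MS) after acetonitrile extraction, following 16-20 h shaking at 27° C. Reaction: 0.125 mg/ml substrate, P450 mutant plus ferredoxin aluF03 and reductase SCF15A, 5 mM G6P, 1 mM NADP, 2 U/ml G6PDH, pH 7.4 phosphate with 5 mM MgCl2.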
# [2] = Metabolism of bosentan by P450 aluC09 and mutants; settings: percent of substrate being converted; 0.125 mg/ml, 27° C., 16-20 hours; [CYP] per enzyme as in Table 8
# Procedure, shortened: (§1)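 Read-out was substrate conversion by UPLC-MS after acetonitrile extraction. Reactions had contained lyophilised aluC09 mutant enzymes with ferredoxin and ferredoxin reductase partners, substrate at 0.125 mg/ml, and a glucose-6-phosphate dehydrogenase NADPH-regenerating system, shaken 16-20 hours at 27° C.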
# [3] = Metabolism of epothilone B by P450 aluC09 and mutants; settings: percent of substrate being converted; 0.125 mg/ml, 27° C., 16-20 hours; [CYP] per enzyme as in Table 8
# Procedure, shortened: as §1
# [4] = Metabolism of ruxolitinib by P450 aluC09 and mutants; settings: percent of substrate being converted; 0.125 mg/ml, 27° C., 16-20 hours; [CYP] per enzyme as in Table 8
# Procedure, shortened: as §1
# [5] = Metabolism of 4-pyrrolidylacetophenone by P450 aluC09 and mutants; settings: percent of substrate being converted; 0.125 mg/ml, 27° C., 16-20 hours; [CYP] per enzyme as in Table 8
# Procedure, shortened: as §1
# [6] = Metabolism of ritonavir by P450 aluC09 and mutants; settings: percent of substrate being converted; 0.125 mg/ml, 27° C., 16-20 hours; [CYP] per enzyme as in Table 8
# Procedure, shortened: as §1
# [7] = Hydroxylation of diclofenac catalysed by cytochrome P450 aluC09 and mutants (UPLC-PDA-MS)
# Procedure, shortened: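 Conversion of diclofenac (0.125 mg/ml) to hydroxy metabolites measured by UPLC with UV and MS detection, identities confirmed by authentic samples. Reactions used P450 aluC09 variants with ferredoxin aluF03, reductase SCF15A and an NADP/G6P/G6PDH recycling system, pH 7.4 phosphate, 27° C, 16-20 hours.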
# [8] = O-demethylation of indomethacin catalysed by cytochrome P450 aluC09 and mutants; settings: % by UV peak area at 275 nm; 0.125 mg/ml substrate, 27° C., 16-20 hours
# Procedure, shortened: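 Conversion was quantified by UPLC-UV/MS after acetonitrile extraction of 16-20 h, 27° C. shaken reactions. These contained 0.125 mg/ml substrate, mutant P450 with partner ferredoxin and reductase, 1 mM NADP plus 5 mM G6P and 2 U/ml G6PDH, in pH 7.4 phosphate with 5 mM MgCl2.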
# [9] = Metabolism of BIRB796 by P450 aluC09 and mutants; settings: percent of substrate being converted; 0.125 mg/ml, 27° C., 16-20 hours; [CYP] per enzyme as in Table 8
# Procedure, shortened: as §1
# [10] = Metabolism of buparvaquone by P450 aluC09 and mutants; settings: percent of substrate being converted; 0.125 mg/ml, 27° C., 16-20 hours; [CYP] per enzyme as in Table 8
# Procedure, shortened: as §1
# [11] = Metabolism of valsartan by P450 aluC09 and mutants; settings: percent of substrate being converted; 0.125 mg/ml, 27° C., 16-20 hours; [CYP] per enzyme as in Table 8
# Procedure, shortened: as §1
# [12] = Hydroxylation of aceclofenac catalysed by cytochrome P450 aluC09 and mutants
# Procedure, shortened: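 Conversion was assessed by UPLC-MS (UV and MS detection) after acetonitrile extraction of reactions run 16-20 h at 27° C, shaking. Reactions contained substrate at 0.125 mg/ml, P450 mutant plus ferredoxin and reductase partners, 1 mM NADP with glucose-6-phosphate regeneration, in phosphate buffer pH 7.4.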
# [13] = Metabolism of tivantinib by P450 aluC09 and mutants; settings: percent of substrate being converted; 0.125 mg/ml, 27° C., 16-20 hours; [CYP] per enzyme as in Table 8
# Procedure, shortened: as §1
# [14] = Hydroxylation / de-N-ethylation of napropamide catalysed by cytochrome P450 aluC09 and mutants
# Procedure, shortened: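 Conversion of napropamide (0.125 mg/ml) to hydroxylated and de-ethylated metabolites was measured by UPLC-MS after acetonitrile extraction. Reactions ran 16-20 h at 27° C in pH 7.4 potassium phosphate (50 mM) with 5 mM MgCl2, 1 mM NADP, 5 mM G6P and 2 UN/ml G6PDH. Enzymes were lyophilised P450 aluC09 variants, ferredoxin aluF03 and ferredoxin reductase SCF15A.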
# [15] = Metabolism of celecoxib by P450 aluC09 and mutants; settings: percent of substrate being converted; 0.125 mg/ml, 27° C., 16-20 hours; [CYP] per enzyme as in Table 8
# Procedure, shortened: as §1
# [16] = Metabolism of tofacitinib by P450 aluC09 and mutants; settings: percent of substrate being converted; 0.125 mg/ml, 27° C., 16-20 hours; [CYP] per enzyme as in Table 8
# Procedure, shortened: as §1
# [17] = % by UV peak area at 275 nm, 0.125 mg/ml substrate, 27° C., 16-20 hours
molecule,measurement,setting,value
"aluC09M40: cytochrome P450 aluC09 mutant T291R; amino acid sequence SEQ ID NO: 72 (protein, listed as Amycolatopsis lurida) MTDVEETTATLPLARKCPFSPPPEYERLRRESPVSRVGLPSGQTAWALTRLEDIREMLSSPHFSSDRQSPSFPLMVARQIRREDKPFRPSLIAMDPPEHSRARRDVVGEFTVKRMKALQPRIQQIVDEHLDALLAGPKPADLVQALSLPVPSLVICELLGVPYSDHEFFQSCSSRMLSREVTAEERMTAFEQLENYLDELVTKKEANATEDDLLGRQILKQRETGEADHGELVGLAFLLLIAGHETTANMISLGTVTLLENPDQLAKIKADPGKTLAAIEELLRVFTIAERATSRFATADVEIGGTLIRAGEGVVGLSNAGNHDPDGFENPDTFDIERGARHHVAFGFGVHQCLGQNLARLELQIVFDTLFRRVPGLRIAVPVDELPFKHDSTIYGLHALPVTW",Flufenamic Acid (Substrate) 1.93 mins,[1]; [17],94.8%
same,Hydroxy-Flufenamic Acid (1) 1.69 mins,[1]; [17],4.4%
same,Hydroxy-Flufenamic Acid (2) 1.65 mins,[1]; [17],0.9%
same,Hydroxylated Ratio 1:2,"[1]; flufenamic acid, ratio of UV peak areas at 275 nm",4.9
same,% conversions (avg) Bosentan,[2],76.5%
same,% conversions (avg) Epothilone B,[3],2.4%
same,% conversions (avg) Ruxolitinib,[4],5.2%
same,% conversions (avg) 4-pyrrolidylacetophenone,[5],1.7%
same,% conversions (avg) Ritonavir,[6],53.4%
same,"4′,5-dihydroxy-diclofenac 1.38 mins",[7]; [17],2.2%
same,4′-hydroxy-diclofenac (1) 1.62 mins,[7]; [17],35.7%
same,5-hydroxy-diclofenac (2) 1.58 mins,[7]; [17],14.3%
same,Diclofenac (Substrate) 1.81 mins,[7]; [17],48.8%
same,Hydroxylated Ratio hydroxy 1:hydroxy 2,"[7]; diclofenac, ratio of UV peak areas at 275nm",2.5
same,Indomethacin (1.74 mins),[8],88.8%
same,O-demethyl-Indomethacin (1.52 mins),[8],11.2%
same,% conversions (avg) BIRB796,[9],0%
same,% conversions (avg) Buparvaquone,[10],0%
same,% conversions (avg) Valsartan,[11],7.3%
same,Aceclofenac (Substrate) (1.80 mins),[12]; [17],46.3%
same,Dihydroxy-Aceclofenac (1.42 mins),[12]; [17],12.7%
same,Hydroxy-Aceclofenac (1) (1.64 min),[12]; [17],19.7%
same,Hydroxy-Aceclofenac (2) (1.60 min),[12]; [17],21.4%
same,Hydroxylated Ratio 2:1,"[12]; aceclofenac, ratio of UV peak areas at 275 nm",1.1
same,% conversions (avg) Tivantinib,[13],5.3%
same,Desethyl Napropamide (1.62 min),[14]; [17],12.9%
same,Desethyl-hydroxy-Napropamide (1.41 min),[14]; [17],0.4%
same,Hydroxy-Napropamide (1) (1.53 min),[14]; [17],2.3%
same,"Hydroxy-Napropamide (2), (1.52 min)",[14]; [17],1.8%
same,M-2Da (unidentified) (1.89 min),[14]; [17],2.4%
same,Napropamide (substrate),[14]; [17],80.6%
same,Hydroxylated Ratio 2:1,"[14]; napropamide, ratio of UV peak areas",0.8
same,% conversions (avg) Celecoxib,[15],0%
same,% conversions (avg) Tofacitinib,[16],0.4%
